Laboratory results: patent US20090074780A1 (ESBATECH AN ALCON BIOMEDICAL RESEARCH UNIT, published 2009)

Assays:
[1] = molecular target: antigen of ESBA105 (not named in the examples) (UniProt P01375); test: assay not described
[2] = molecular target: T1, antigen of ESBA105 (not named in the examples) (UniProt P01375 77-233, limits assumed); test: assay not described
[3] = molecular target: T1, antigen of ESBA105 (not named in the …); test: assay not described; reference itself

Sequence of antigen of ESBA105 (not named in the examples) (UniProt P01375) (P01375 77-233 limits assumed): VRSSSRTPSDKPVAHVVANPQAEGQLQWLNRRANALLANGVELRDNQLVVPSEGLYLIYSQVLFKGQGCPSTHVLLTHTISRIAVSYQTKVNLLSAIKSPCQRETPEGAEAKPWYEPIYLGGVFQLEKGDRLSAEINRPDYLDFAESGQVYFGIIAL
T1 sequence (P01375 77-233 limits assumed): as above

ESBA105 VH V103T (scFv) was tested, and the Activity relative to ESBA105 (relative to ESBA105) [1] was 1.2.

In the case of ESBA105_VL V3Q (scFv), the Binding Activity (relative to parental ESBA105) (relative to parental ESBA105) [1] is reported as 1.2.

B1: ESBA105_QC15.2 (scFv, V domains shown)
VH: QVQLVQSGAEVKKPGASVKVSCTASGYTFTHYGMNWVRQAPGRGLEWMGWINTYTGEPTYADKFKDRITFSLETSASTVYMELTSLTSDDTAVYYCARERGDAMDYWGQGTLVTVSS
VL: DIVMTQSPSSLSASVGDRVTLTCTASQSVSNDVVWYQQRPGKAPKLLIYSAFNRYTGVPSRFSGRGYGTDFTLTISSLQPEDVAVYYCQQDYNSPRTFGQGTKLEVK
In the case of B1, the “Binding Activity (relative to parental ESBA105)” value [2] is reported as 1 relative to parental ESBA105.

B2: ESBA105 (scFv)
chain: MADIVMTQSPSSLSASVGDRVTLTCTASQSVSNDVVWYQQRPGKAPKLLIYSAFNRYTGVPSRFSGRGYGTDFTLTISSLQPEDVAVYYCQQDYNSPRTFGQGTKLEVKRGGGGSGGGGSGGGGSSGGGSQVQLVQSGAEVKKPGASVKVSCTASGYTFTHYGMNWVRQAPGKGLEWMGWINTYTGEPTYADKFKDRFTFSLETSASTVYMELTSLTSDDTAVYYCARERGDAMDYWGQGTLVTVSS
With B2 the “Activity relative to ESBA105” value [3] was 1 relative to ESBA105.
